According to US11795488B2, “Methods for enzymatic peptide ligation” (NANYANG TECHNOLOGICAL UNIVERSITY, priority 2016, dated 2023):
Substitutions are numbered along the chain they refer to. Read-outs that look alike come from different tables or passages of the source.

Key:
OaAEP1 [1] = experiment: Self-activation (acid-induced self-cleavage) of OaAEP1 and mutants, SDS PAGE; type: biochemical, Oldenlandia affinis; conditions: for self-activation (auto-activation): acidic pH
Description: To self-activate OaAEP1, 1 mM EDTA and 0.5 mM Tris (2-carboxyethyl) phosphine hydrochloride were added to the immature protein and the pH of the solution was adjusted to 4 with glacial acetic acid. Fractions containing the protein (as analyzed by SDS-PAGE) were pooled and then incubated for 3 to 16 hours at room temperature or 37° C. Protein precipitation at this pH allowed removal of the bulk of the contaminating proteins by centrifugation. Activated proteins were concentrated by ultracentrifugation using a 50 kDa cutoff concentrator (Sartorius) and stored at −80° C.
OaAEP1 was cloned and expressed in E. coli as an ubiquitin fusion protein as reported earlier (FIG. 2) (Harris, K. S., et al., Nat Commun, 2015. 6: p. 10199). Using ion exchange and size exclusion chromatography (SEC), sufficient amounts of pure protein suitable for enzymatic and structural analysis were obtained (FIG. 2B). At the neutral pH of purification (pH=7.4), OaAEP1 was mainly present as a heterodimer, where both monomers are in their zymogenic form, but only one monomer had retained in addition the ubiquitin and N-terminal His-tag, while the fusion moiety was cleaved in the other monomer (labeled as “His-Ub-AEP-FL” and “AEP-FL” in FIG. 2B and FIG. 2C). This heterodimer was subjected to crystallization trials for structural studies (see below). In agreement with reference (Harris, K. S., et al., Nat Commun, 2015. 6: p. 10199), activation of OaAEP1 was optimum for pH values in the range of 3.4-4.0 (FIG. 2D). Following activation, OaAEP1 converts to a monomer in solution according to SEC analysis (“AEP-holo” in FIG. 2C). To test the ability of the protein to be activated in trans, the catalytic residue Cys217 was mutated into Ser217.
Since the crystallization conditions are compatible with OaAEP1 activation, the present crystal structure is likely to have captured one of the conformational states occurring along the activation pathway. To determine whether Gln347 belongs to the segment recognized and cleaved during self-activation, mutagenesis experiments targeting region 346-351 of the OaAEP1 protein were performed (FIG. 4C). The role of Gln347 in OaAEP1 auto-activation was particularly assessed by mutating this residue to Ala, and whether enzyme activation was abolished was examined. Only little impact was found on the mutant enzyme activation (FIG. 4C). Residues Asn346, Asp349 and Asp351 that are next to Gln347 were then targeted. […] Thus, trans-activation requires the presence of at least one of the four Asx/Gln residues (with a slight preference for Asp349 or Asp351) found in this segment of the linker.

OaAEP1 [2] = experiment: Trans-activation of inactive mutants by wild type OaAEP1; type: biochemical, Oldenlandia affinis
Excerpt: (a) Schematic illustration of the His-Ub-OaAEP1 construct used with the boundaries of the three regions of the protein indicated and the deduced activation segment. 6-His tag and Ubiquitin tag followed by OaAEP1 (24-474) was synthesized and inserted into pET28b vector. After Ni-NTA affinity purification, about half of Ub-AEP-FL lost the N-terminal fusion tags and was purified in AEP-FL form (53-474), which was eventually crystallized. The enzymatic active form of OaAEP1b, AEP-holo (53-347/351) is the acidic induced self-cleavage product of AEP-FL, which lost the C-terminal auto inhibitory cap domain. (b) SDS PAGE analysis of fractions obtained over the course of chromatographic purification and of dissolved crystals. (c) Size-exclusion chromatography profiles of OaAEP1 before and after activation showing Ub-AEP-FL and AEP-FL heterodimer and the AEP-holo monomer. The elution volumes of standard proteins are indicated for comparison. (d) SDS PAGE analysis of OaAEP1 pH-dependent activation. The activation was performed for 3 hours, and the peak of activation is in between pH 3.4 to 4.
OaAEP1 was cloned and expressed in E. coli as an ubiquitin fusion protein as reported earlier (FIG. 2) (Harris, K. S., et al., Nat Commun, 2015. 6: p. 10199). Using ion exchange and size exclusion chromatography (SEC), sufficient amounts of pure protein suitable for enzymatic and structural analysis were obtained (FIG. 2B). […]
Since the crystallization conditions are compatible with OaAEP1 activation, the present crystal structure is likely to have captured one of the conformational states occurring along the activation pathway. […] The role of Gln347 in OaAEP1 auto-activation was particularly assessed by mutating this residue to Ala, and whether enzyme activation was abolished was examined. […]

peptide substrate = experiment: Comparison of cyclization efficiency of gate-keeper Cys247 mutants (MALDI-TOF MS); type: biochemical
Description: Native and modified amino acids were purchased from Sigma-Aldrich (USA). All peptides used in this manuscript were synthesized in-house using the solid-phase method and HPLC purified. Cyclization assays were performed in 50-μl reaction mixtures containing 20 mM phosphate buffer, ligases (5 to 700 nM) and peptide substrates (10 to 300 μM). Each reaction was performed in triplicate at 37° C. and quenched by adding 5 μl of 1 M HCl solution. The peptides were separated by using a reversed-phase C18 analytical column (150×2.1 mm, Vydac) with a linear gradient from 10% to 50% acetonitrile over 15 min on a Nexera UHPLC system (Shimadzu). For kinetic analysis, the concentrations of WT OaAEP1, mutant OaAEP1, and butelase 1 were fixed at 700 nM, 50 nM, and 20 nM, respectively. The cyclization velocities were calculated by converting the HPLC-peak areas of remained linear precursors or the cyclized products into concentrations. The identity of each HPLC peak was analyzed by MALDI-TOF MS (ABI 4800 MALDI TOF/TOF). The velocities were input into GraphPad Prism (GraphPad Software, San Diego) to obtain the Michaelis-Menten curve and the kinetic parameters (kcat and Km). Comparison for the cyclization efficiency of various OaAEP1 mutants were performed in a volume of 20 μl of the reaction mixture and analyzed by MALDI-TOF MS after 10 mins or 1 hour ligation reaction.
The pre-ligation conformation of OaAEP1 captured in the present structure was then analyzed to identify several key features that could differentiate an AEP protease from an AEP-like ligase. […] In contrast to AEP proteases, the surface of OaAEP1 facing the catalytic Cys217 appears to be more widely open. Three cysteine residues (Cys247, Cys250, Cys264) are aligned along a shallow cleft at the surface of the enzyme (FIGS. 3C and 3E). Unlike the surface of AEP proteases that contains several bulges, both butelase 1 (using a homology model based on OaAEP1b) and OaAEP1 have residues with smaller side-chains along this patch. A disulfide bond is formed between Cys250 and Cys264, which are conserved in AEP-like ligases butelase 1 and OaAEP1b. This covalent bond is likely to stabilize the local structure and provide an adequate surface allowing the approach of an N-terminal amine incoming group. Conversely, the corresponding surface patch of AEP proteases (PDB: 4AWA) is lined with residues having bulky side-chains like Tyr (FIG. 3E) blocking this channel. It was therefore hypothesized that residue Cys247 which is located at the extremity of the substrate channel is likely to function as a final nucleophile filter (or “gate-keeper”), allowing attack from the N-terminal amine to complete the ligation reaction. […]

[3] = Proteolytic and protein ligation activity of AEP_C13C04; type: biochemical
Excerpt: Based on the prediction of the sequence alignment, AEP_C13C04 contained the conserved structural motif identical to Quicklase (247-264). […] The cDNA of AEP_C13C04 was then subsequently synthesized and subcloned into pet28b in a similar way as Quicklase.

B1: Cys217Ser (protein)
chain: MVRYLAGAVLLLVVLSVAAAVSGARDGDYLHLPSEVSRFFRPQETNDDHGEDSVGTRWAVLIAGSKGYANYRHQAGVCHAYQILKRGGLKDENIVVFMYDDIAYNESNPRPGVIINSPHGSDVYAGVPKDYTGEEVNAKNFLAAILGNKSAITGGSGKVVDSGPNDHIFIYYTDHGAAGVIGMPSKPYLYADELNDALKKKHASGTYKSLVFYLEASESGSMFEGILPEDLNIYALTSTNTTESSWCYYCPAQENPPPPEYNVCLGDLFSVAWLEDSDVQNSWYETLNQQYHHVDKRISHASHATQYGNLKLGEEGLFVYMGSNPANDNYTSLDGNALTPSSIVVNQRDADLLHLWEKFRKAPEGSARKEEAQTQIFKAMSHRVHIDSSIKLIGKLLFGIEKCTEILNAVRPAGQPLVDDWACLRSLVGTFETHCGSLSEYGMRHTRTIANICNAGISEEQMAEAASQACASIP
In the case of B1, the “activation and ligase activity of active site mutant” value (OaAEP1 [1]) is reported as “only displayed background level activation and ligase activity” and the “activation in trans by wild type OaAEP1” value (OaAEP1 [2]) is reported as “could be rescued in trans by addition of only 10% of wild type OaAEP1”.

B2: Asn346Ala-Gln347Ala (protein)
chain: B1 chain with S217C, N346A, Q347A
With B2 the “self-activation (auto-activation)” value (OaAEP1 [1]) was “can still be activated”.

B3: Asp349Ala-Asp351Ala (protein)
chain: B1 chain with S217C, D349A, D351A
For B3, the “self-activation (auto-activation)” value (OaAEP1 [1]) was “can still be activated”.

B4: Asn346Ala-Asp349Ala-Asp351Ala (protein)
chain: B1 chain with S217C, N346A, D349A, D351A
For B4, the “self-activation (auto-activation)” value (OaAEP1 [1]) was “can still be activated” and the “self-activation (auto-activation)” value (OaAEP1 [1]; listed as A3) was “more severe loss of function phenotype”.

B5: Asn346Ala-Gln347Ala-Asp349Ala-Asp351Ala (protein)
chain: B1 chain with S217C, N346A, Q347A, D349A, D351A
For B5, the “self-activation (auto-activation)” value (OaAEP1 [1]) was “most significantly impaired auto-activation activity”, the “self-activation (auto-activation)” value (OaAEP1 [1]; listed as A4) was “more severe loss of function phenotype” and the “activation in trans by wild type OaAEP1” value (OaAEP1 [2]) was “could not be rescued in trans”.

B6: Cys247Gly: OaAEP1 gate-keeper mutant Cys247 to Gly (protein)
chain: B1 chain with S217C, C247G
With B6 the “alternative reaction when N-terminal amine is not available” value (peptide substrate; N-terminal amine group acetylated) was “catalyzes peptide hydrolysis as alternative reaction” and the “ligase activity compared to WT OaAEP1” value (peptide substrate; gate-keeper position 247 mutants) was “negatively affects the ligase activity”.

B7: AEP_C13C04: Peptidase C13, legumain [OMO86616.1] from Corchorus olitorius, SEQ ID NO:8 (protein, listed as Corchorus olitorius)
chain: MTRLVAGVILLLLSVTGIASAGRDATGDVLRLPSEASRFFRPSDDDEVGTRWAVLIAGSNGYWNYRHQADVCHAYQLLKKGGLKDENIIVFMYDDIAFNYENPRQGIIINSPHGDDVYQDVPKDYTGEEVTVHNFLAAILGNKTAIKGGSGKVVDSGPNDHIFIYYTDHGGPGVLGMPTYPYLYADELIDTLKKKHASGTYKSLVFYLEACESGSIFEGLLPEGLNIYATTASNADESSWGTYCPGEYPSPPPEYETCLGDLYSVAWMEDSDLHNLRTETLHQQYELVKRRTLNGNSAYGSHVMQYGDVGLAKEHLFLYLGTNPANDNFTFIDENSLQPPAKAVNQRDADLVHFWDKYRKAPDGSVRKVEAQKQVVEAMSHRMHVDNSIQLIGKLLFGIERGADVLKTVRPAGQPLVDDWKCLKSMVRTFETHCGSLAQYGMKHMRSIANICNAGIQTEQMAEASSQACVSIPSGQWSSIQKGFSA
In the case of B7, the byproducts [3] is reported as “significant byproducts of proteolytic reactions”, the “proteolytic and protein ligation activities” value [3] is reported as “exhibited both proteolytic and protein ligation activities” and the “proteolytic and protein ligation activities” value ([3]; listed as AEP_C13CO4) is reported as “is a peptide ligase having the activity of OaAEP1 Cys247Ala”. For the same molecule, the “enzymatic catalytic efficiency compared with Quicklase” value ([3]; wild type AEP_C13C04) was “much slower”.

B8: Cys217Ala (protein)
chain: B1 chain with S217A
For B8, the “self-activation (auto-activation)” value (OaAEP1 [1]) was “devoid of self-activation activity” and the “activation in trans by wild type OaAEP1” value (OaAEP1 [2]) was “trans-cleavage and activation of most of the AEP-FL Cys217Ala after 18 hours”.
